The values below come from PMC3200332.

For this assay, the target named is pyruvate ferredoxin oxidoreductase (POR) from P. furiosus (Pyrococcus furiosus).

Turning to “OE-SHI Dimer, heterodimeric form of P. furiosus soluble hydrogenase I (His9-PF0893 + PF0894) (from UniProt Q8U2E5 1-367) (complex)”, the POR-linked H2 evolution activity (electrons from pyruvate via POR; ferredoxin had no significant effect) is 0.2 U mg^−1. “native Pyrococcus furiosus soluble hydrogenase I (SHI), heterotetramer PF0891-PF0894 (from UniProt Q8U2E5 1-367; Q8U2E5 1-367) (complex)” showed a POR-linked H2 evolution activity (electrons from pyruvate via POR) of -0 U mg^−1.
